B2: Snf5 (natural protein, S. cerevisiae (endogenous in yeast), UniProt P18480 1-905, looked up)
chain: MNNQPQGTNSVPNSIGNIFSNIGTPSFNMAQIPQQLYQSLTPQQLQMIQQRHQQLLRSRLQQQQQQQQQTSPPPQTHQSPPPPPQQSQPIANQSATSTPPPPPAPHNLHPQIGQVPLAPAPINLPPQIAQLPLATQQQVLNKLRQQAIAKNNPQVVNAITVAQQQVQRQIEQQKGQQTAQTQLEQQRQLLVQQQQQQQLRNQIQRQQQQQFRHHVQIQQQQQKQQQQQQQHQQQQQQQQQQQQQQQQQQQQQQQQQQQQQQQQQQQQQGQIPQSQQVPQVRSMSGQPPTNVQPTIGQLPQLPKLNLPKYQTIQYDPPETKLPYPTYWSDKKADTDTLLYEQIIQRDKINKYSLIRETNGYDPFSIYGFSNKEYISRLWHTLKYYQDLKNTRMKSITSTSQKIPSASIWGNGYSGYGNGITNTTTRVIPQVEVGNRKHYLEDKLKVYKQAMNETSEQLVPIRLEFDQDRDRFFLRDTLLWNKNDKLIKIEDFVDDMLRDYRFEDATREQHIDTICQSIQEQIQEFQGNPYIELNQDRLGGDDLRIRIKLDIVVGQNQLIDQFEWDISNSDNCPEEFAESMCQELELPGEFVTAIAHSIREQVHMYHKSLALLGYNFDGSAIEDDDIRSRMLPTITLDDVYRPAAESKIFTPNLLQISAAELERLDKDKDRDTRRKRRQGRSNRRGMLALSGTSASNTSMNGVHNTVAAGNASSLPPGEILLPDIADIPRTFRTPVPSTLMPGGVDVGPSVESYELRNTTTYKSRPDRPKPVSPPCYIIDHIPGHSLLLSIKLPGKVNTKEEFAAAPNDTSSGTNAMLPSPESLKTKLNSNIRAGVTIPSIPNPIANHTVTNSPNPTLQPVIPGGAASKSVPTPSLPIAPPVAPHDSEATLLTNSNNGSSNNNTQNT
B4: Swi1 (natural protein, S. cerevisiae (endogenous in yeast), UniProt P09547 1-1314, looked up)
chain: MDFFNLNNNNNNNNTTTTTTTTNNNNTNNNNTNNNNNPANNTNNNNSTGHSSNTNNNTNNNNTNTGASGVDDFQNFFDPKPFDQNLDSNNNNSNSNNNDNNNSNTVASSTNFTSPTAVVNNAAPANVTGGKAANFIQNQSPQFNSPYDSNNSNTNLNSLSPQAILAKNSIIDSSNLPLQAQQQLYGGNNNNNSTGIANDNVITPHFITNVQSISQNSSSSTPNTNSNSTPNANQQFLPFNNSASNNGNLTSNQLISNYAASNSMDRSSSASNEFVPNTSDNNNNSNNHNMRNNSNNKTSNNNNVTAVPAATPANTNNSTSNANTVFSERAAMFAALQQKQQQRFQALQQQQQQQQNQQQQNQQPQQQQQQQQNPKFLQSQRQQQQRSILQSLNPALQEKISTELNNKQYELFMKSLIENCKKRNMPLQSIPEIGNRKINLFYLYMLVQKFGGADQVTRTQQWSMVAQRLQISDYQQLESIYFRILLPYERHMISQEGIKETQAKRIFLQQFLQELLKKVQQQQQAAALANANNNINSASSAPTPAAPGASVPATAAPGTEAGIVPVSANTPKSLNSNININVNNNNIGQQQVKKPRKQRVKKKTKKELELERKEREDFQKRQQKLLEDQQRQQKLLLETKLRQQYEIELKKLPKVYKRSIVRNYKPLINRLKHYNGYDINYISKIGEKIDSNKPIFLFAPELGAINLHALSMSLQSKNLGEINTALNTLLVTSADSNLKISLVKYPELLDSLAILGMNLLSNLSQNVVPYHRNTSDYYYEDAGSNQYYVTQHDKMVDKIFEKVNNNATLTPNDSNDEKVTILVDSLTGNQLPTPTPTEMEPDLDTECFISMQSTSPAVKQWDLLPEPIRFLPNQFPLKIHRTPYLTSLKKIKDEIDDPFTKINTRGAEDPKVLINDQLSTISMILRNISFSDNNSRIMSRNFYLKRFISDLLWLVLIHPENFTCNRKILNFKKDLVIVLSNISHLLEIASSIDCLLILILVISFGQPKLNPMASSSSFGSESLTFNEFQLQWGKYQTFGVDILAKLFSLEKPNLNYFKSILLNKNTGNNLYDRNSNNNHKDKKLLRRLLNLYNDNNKNNNNRHNLLNDVVSFLFSAIPLQQVLSQSADPSLLIDQFSPVISQSLTSILVIVQKILPLSNEVFEISENNSDSNSNNNGNKDSSFNFNKNLPFVWLSSEENIGSGLLKLSEIILNINNSTSKNTLLQQQNYSKVLLPSINISCVQLIKCLVEKSICFENCLNNDPEILKKIASIPNLFPTDLEIFQLFTNPSVDIQIINQYQLLYNLKNDILTNLE

Holding throughout (experiment): cross-linking
The assay “Snf5” deals with B2.
Assay [1] deals with Snf2 with two FLAG tags at the C-terminus (S. cerevisiae (endogenous in yeast), UniProt P22082 1-1703).
In the assay “Swi1” the target is B4.

Snf2 with two FLAG tags at the C-terminus, sequence (P22082 whole entry): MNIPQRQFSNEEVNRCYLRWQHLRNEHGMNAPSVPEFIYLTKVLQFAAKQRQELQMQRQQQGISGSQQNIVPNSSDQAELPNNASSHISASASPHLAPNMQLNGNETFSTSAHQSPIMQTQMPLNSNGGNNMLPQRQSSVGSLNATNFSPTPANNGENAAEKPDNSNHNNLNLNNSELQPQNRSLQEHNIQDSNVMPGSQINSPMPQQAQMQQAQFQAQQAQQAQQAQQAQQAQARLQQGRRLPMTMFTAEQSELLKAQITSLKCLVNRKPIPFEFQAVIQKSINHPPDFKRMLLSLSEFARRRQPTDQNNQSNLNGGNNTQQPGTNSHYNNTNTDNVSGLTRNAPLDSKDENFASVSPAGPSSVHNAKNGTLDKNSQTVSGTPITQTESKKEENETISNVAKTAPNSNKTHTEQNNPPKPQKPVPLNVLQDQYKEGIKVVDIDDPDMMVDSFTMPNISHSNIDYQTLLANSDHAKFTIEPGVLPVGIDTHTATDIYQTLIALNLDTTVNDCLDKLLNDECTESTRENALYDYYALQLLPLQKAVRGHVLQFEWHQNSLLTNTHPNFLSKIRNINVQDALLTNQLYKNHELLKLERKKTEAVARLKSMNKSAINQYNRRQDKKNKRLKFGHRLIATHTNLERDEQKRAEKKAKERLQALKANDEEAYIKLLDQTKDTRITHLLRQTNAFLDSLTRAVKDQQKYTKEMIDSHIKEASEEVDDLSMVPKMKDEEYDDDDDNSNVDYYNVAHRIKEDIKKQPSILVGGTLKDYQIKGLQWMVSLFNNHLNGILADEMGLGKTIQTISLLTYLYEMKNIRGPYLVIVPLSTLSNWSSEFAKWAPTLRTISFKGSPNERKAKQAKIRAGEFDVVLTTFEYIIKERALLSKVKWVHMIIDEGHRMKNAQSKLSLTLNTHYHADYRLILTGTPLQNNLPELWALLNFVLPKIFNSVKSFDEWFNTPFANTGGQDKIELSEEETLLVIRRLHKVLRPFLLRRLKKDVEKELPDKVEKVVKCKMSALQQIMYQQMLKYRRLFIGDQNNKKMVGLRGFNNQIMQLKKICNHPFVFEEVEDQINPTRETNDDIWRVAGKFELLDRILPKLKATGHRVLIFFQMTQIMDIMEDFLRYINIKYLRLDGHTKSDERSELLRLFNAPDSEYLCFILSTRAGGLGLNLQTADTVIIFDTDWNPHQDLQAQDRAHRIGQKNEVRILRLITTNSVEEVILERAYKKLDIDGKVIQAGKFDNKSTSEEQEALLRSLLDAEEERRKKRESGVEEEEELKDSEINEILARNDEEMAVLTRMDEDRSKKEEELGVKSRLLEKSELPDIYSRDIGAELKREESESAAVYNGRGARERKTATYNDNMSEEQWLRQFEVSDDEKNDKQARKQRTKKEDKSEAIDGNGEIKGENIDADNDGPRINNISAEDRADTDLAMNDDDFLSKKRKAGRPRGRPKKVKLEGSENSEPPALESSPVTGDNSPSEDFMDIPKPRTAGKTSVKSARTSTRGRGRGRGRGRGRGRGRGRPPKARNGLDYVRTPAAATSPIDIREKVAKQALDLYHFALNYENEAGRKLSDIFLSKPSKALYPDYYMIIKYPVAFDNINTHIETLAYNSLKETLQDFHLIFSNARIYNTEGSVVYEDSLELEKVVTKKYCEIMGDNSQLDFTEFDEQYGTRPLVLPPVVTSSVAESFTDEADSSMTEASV

B1: Taf14 (natural protein, S. cerevisiae (endogenous in yeast), UniProt P35189 1-244, looked up)
chain: MVATVKRTIRIKTQQHILPEVPPVENFPVRQWSIEIVLLDDEGKEIPATIFDKVIYHLHPTFANPNRTFTDPPFRIEEQGWGGFPLDISVFLLEKAGERKIPHDLNFLQESYEVEHVIQIPLNKPLLTEELAKSGSTEETTANTGTIGKRRTTTNTTAEPKAKRAKTGSASTVKGSVDLEKLAFGLTKLNEDDLVGVVQMVTDNKTPEMNVTNNVEEGEFIIDLYSLPEGLLKSLWDYVKKNTE
As to B1, the binding result (with Snf5; in assay [1]) was “binds” throughout. B2: the binding result (in assay [1]; in the assay with Swi1) was “binds” throughout.

B3: Snf6 (natural protein, S. cerevisiae (endogenous in yeast), UniProt P18888 1-332, looked up)
chain: MGVIKKKRSHHGKASRQQYYSGVQVGGVGSMGAINNNIPSLTSFAEENNYQYGYSGSSAGMNGRSLTYAQQQLNKQRQDFERVRLRPEQLSNIIHDESDTISFRSNLLKNFISSNDAFNMLSLTTVPCDRIEKSRLFSEKTIRYLMQKQHEMKTQAAELQEKPLTPLKYTKLIAAAEDGSRSTKDMIDAVFEQDSHLRYQPDGVVVHRDDPALVGKLRGDLREAPADYWTHAYRDVLAQYHEAKERIRQKEVTAGEAQDEASLQQQQQQDLQQQQQVVTTVASQSPHATATEKEPVPAVVDDPLENMFGDYSNEPFNTNFDDEFGDLDAVFF
Consider B3, for which the binding result with Snf5 is “binds”. In the case of B4, the binding result in assay [1] is listed as “binds”.

B5: Swp82 (natural protein, S. cerevisiae (endogenous in yeast), UniProt P43554 1-623, looked up)
chain: MLGEDEGNTVLEKGNNPSVKQGEVGAVFIVPKILIREHERVILKQILQILDQDELVQPPLDKFPYKKLELPKYIDELKTRDATNTSYKMIQLDAYGEKKVGSNGELFGGRHYLFNTFTFTAHMGVLLVLLQDVIKVLYQSNATHDEDEFIVQHDQILVMETSEEQTKFLAKNGVIPEESKGSFKYITARSAFVEFGASVIAGGQRIVDDYWESLAKKQNLSSHQRVFKLSTNLISKISLLRPSFQNNRISNANEISANTNNTCTISTSKFESQYPIVTEQPSAEIREAYIENFAKGEHISAIVPGQSISGTLELSAQFRVPRYHSKNSFQQALQMKAMDIPIGRHEELLAQYESQAPDGSASISLPNHIPSVNPSNKPIKRMLSSILDINVSSSKNKKSEENEMIKPMNKGQHKNNTSLNINGWKFESLPLKSAENSGKQQYYRGLPLYEKNTLLERLKQLTPNEIKELEHLHDAVFVNTGLQNVRKVRTKKWKKYWQYKAGIPIGLKRSQLDEFKNKYLKDVLAQTSVTTNFNEITNTDETITTKRVPNPNFLGNCNIKDFKPPYIYSHVNKVPQNVAGDKTAVKLDTEVKNTNANPVVATDPVAAKPDNLANFSNEVAMNN
Regarding B5, the binding result (with Snf5; in assay [1]) was “binds” in each case.

B6: Swi3 (natural protein, S. cerevisiae (endogenous in yeast), UniProt P32591 1-825, looked up)
chain: MENTLGEGSTVNASVDVDQHGNDNNSDSNANAAVAGVANTDTAGEESQQQDESLKDEATVPNTRDAESEAITVTAKQQPTMQANKLDSQETPSTEESRAQNVFGQDNEDSDNLFGETESSVSNNEANTPSIPTNPVDNENNKPAIKEDSTIQDSNGDVKNMEDVKIQKEEEPENNTVIEGVKEESQPDENTKEMDEVEEDDEDDDQPMISPDNSIFGDTKSESKQLGNTSSVANTPSEIPDAHKAEQEDIIEKTESVDKKVDSGEERNEQEREIMNDHSKSANPKKTTITRVEPETFEIPQAHEIVIPSYSKWFNLEKIHSIEVQSLPEFFTNRIPSKTPEVYMRYRNFMVNSYRLNPNEYFSVTTARRNVSGDAAALFRLHKFLTKWGLINYQVDSKLLPKNIEPPLTSQYSTRHDAPRGLFPFESYKPSVQLPDMAKLKKMMNTSDSESTLYKYLKESKRKYDEITHPPSTTDDENGDKNDNGGKMNNEVSTSTSMTGDANLLEEGETSRPLKKVKILEQIDENWSKEDLQKLLKGIQEFGADWYKVAKNVGNKSPEQCILRFLQLPIEDKFLYGDGNGKGDNDNGLGPLKYAPHLPFSKSENPVLSTIAFLVGLVNPKTVQSMTQRAIQSAESIKSQKEEISDQKPIEHIKEGSEIAISSLGYRSHIFATNEERQMNFLTNELIRLQMEKLDAKLNHLKKLEKFMELERKTLERQQENLLIQRLNFNQNSSKIVNVLSKCLNLISDSNINNSSVAEKEEIRSQIDHFKSMLSKPETLSIGKNPFNKPNIETGENHNGQSISNENDVKPISIEAPQFYRYWSA
Consider B6, for which the binding result (with Snf5; in assay [1]) was “binds” throughout.

These data come from publication PMC5424545 (Cell reports, 2017).
